The source of these data is US20250242041A1 (Seagen, published 2025).

Usually EC50 stands for the concentration that produces a half-maximal response.

Like-named read-outs stand apart in the source and are kept apart here.

Test [1] addresses T1, human αvβ6 on 293F:huβ6 cells (human, UniProt P06756 31-1048; P18564 22-788).
T1 chain 1: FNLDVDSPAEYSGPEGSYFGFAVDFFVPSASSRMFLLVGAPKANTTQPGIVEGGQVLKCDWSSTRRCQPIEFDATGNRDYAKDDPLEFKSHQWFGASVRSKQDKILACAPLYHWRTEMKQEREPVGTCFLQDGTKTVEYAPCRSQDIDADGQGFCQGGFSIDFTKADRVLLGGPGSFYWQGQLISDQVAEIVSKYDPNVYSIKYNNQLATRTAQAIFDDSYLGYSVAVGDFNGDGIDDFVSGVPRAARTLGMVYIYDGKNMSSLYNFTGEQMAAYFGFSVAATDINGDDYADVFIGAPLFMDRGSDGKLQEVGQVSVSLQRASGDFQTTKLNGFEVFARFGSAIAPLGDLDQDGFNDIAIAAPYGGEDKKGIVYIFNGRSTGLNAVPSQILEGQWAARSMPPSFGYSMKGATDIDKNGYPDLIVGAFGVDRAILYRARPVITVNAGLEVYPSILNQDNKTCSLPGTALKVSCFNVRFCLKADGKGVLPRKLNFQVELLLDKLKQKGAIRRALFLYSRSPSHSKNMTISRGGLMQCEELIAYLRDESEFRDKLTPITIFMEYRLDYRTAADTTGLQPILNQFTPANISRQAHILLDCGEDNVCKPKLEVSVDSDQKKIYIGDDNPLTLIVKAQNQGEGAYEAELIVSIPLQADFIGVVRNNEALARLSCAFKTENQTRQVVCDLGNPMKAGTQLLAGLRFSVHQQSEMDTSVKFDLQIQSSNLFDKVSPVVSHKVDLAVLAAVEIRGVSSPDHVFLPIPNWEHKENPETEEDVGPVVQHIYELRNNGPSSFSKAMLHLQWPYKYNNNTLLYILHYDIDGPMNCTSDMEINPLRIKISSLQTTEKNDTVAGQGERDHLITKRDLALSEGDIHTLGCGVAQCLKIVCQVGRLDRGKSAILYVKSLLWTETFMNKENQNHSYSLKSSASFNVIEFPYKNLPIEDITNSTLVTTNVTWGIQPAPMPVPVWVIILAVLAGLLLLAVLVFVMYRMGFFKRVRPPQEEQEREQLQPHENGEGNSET
T1 chain 2: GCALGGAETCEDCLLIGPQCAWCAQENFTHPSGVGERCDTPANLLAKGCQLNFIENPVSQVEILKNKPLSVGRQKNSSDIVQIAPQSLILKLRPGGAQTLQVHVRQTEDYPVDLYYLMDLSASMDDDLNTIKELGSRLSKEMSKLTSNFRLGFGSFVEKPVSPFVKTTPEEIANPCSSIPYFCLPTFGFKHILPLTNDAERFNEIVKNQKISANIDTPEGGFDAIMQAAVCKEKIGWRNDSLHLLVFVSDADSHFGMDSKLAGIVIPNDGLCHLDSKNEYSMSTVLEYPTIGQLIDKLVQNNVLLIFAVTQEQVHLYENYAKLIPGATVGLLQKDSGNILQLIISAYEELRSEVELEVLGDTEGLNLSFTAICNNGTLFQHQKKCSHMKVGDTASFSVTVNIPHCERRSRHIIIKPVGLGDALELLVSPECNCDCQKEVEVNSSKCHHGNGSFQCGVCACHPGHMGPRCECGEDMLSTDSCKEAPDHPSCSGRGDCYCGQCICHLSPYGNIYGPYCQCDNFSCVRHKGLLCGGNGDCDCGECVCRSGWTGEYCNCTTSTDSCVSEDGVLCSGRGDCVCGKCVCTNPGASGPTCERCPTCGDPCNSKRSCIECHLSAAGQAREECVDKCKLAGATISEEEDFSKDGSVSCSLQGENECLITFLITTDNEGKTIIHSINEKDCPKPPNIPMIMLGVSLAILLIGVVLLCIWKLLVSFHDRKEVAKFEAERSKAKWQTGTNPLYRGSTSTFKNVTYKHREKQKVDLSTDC
The test is described as follows: competition binding on 293F cells; 2nM m2A2-AF647 competitor.

The target of test [2] is T1, human αvβ6 on 293F:huβ6 cells. The test is described as above.
In test [3] the target is T2, human αvβ6 on 293F:huβ6 cells (human, UniProt P06756 31-1048; P18564 22-788).
T2 construct: whole, on cells; also called HEK293F:huβ6
The test is described as follows: saturation binding by flow cytometry on 293F:huβ6 cells; also confirmed by competition binding. As to the method: 0.1×10⁶ antigen expressing cells were aliquoted in each well of a 96-well v-bottom plate on ice. The cells were incubated for 1 hour with 2 nM AlexaFluor-647 labeled humanized 2A2 HCLG and increasing concentrations (from 4 pM-1 uM) of unlabeled humanized 2A2 HCLG antibody and h2A2-Mdpr-PEG(12)-gluc-MMAE(8) in buffer (Tris-buffered saline, 2% fetal bovine serum, 0.5 mM MnCl₂, 0.02% NaN₃). Cells were pelleted and washed 3 times with TBS/FBS. The cells were pelleted and resuspended in 125 uL of TBS/FBS. Fluorescent signal of binding was detected using a Becton Dickinson Biosciences LSR II (San Jose, CA). Percent of saturated fluorescent signal was used to determine percent labeled humanized 2A2 antibody bound to cells and to subsequently extrapolate the EC50 by fitting the data to a sigmoidal dose-response curve with variable slope using GraphPad Software (LaJolla, CA).
0.1×10⁶ antigen expressing cells were aliquoted per well into a 96-well v-bottom plate. m2A2 and h2A2 HCLG were directly labeled with AlexaFluor-647 and added to cells at concentrations ranging from 6 pM-340 nM in buffer (Tris-buffered saline, 2% fetal bovine serum, 0.5 mM MnCl₂, 0.02% NaN₃). […] Fluorescent signal of binding was detected using a Becton Dickinson Biosciences LSR II (San Jose, CA). The EC50 was calculated using GraphPad Software (LaJolla, CA).

B1: h2A2 HCLG humanized antibody (antibody, human IgG1, kappa, V domains shown)
VH: QFQLVQSGAEVKKPGASVKVSCKASGYSFTDYNVNWVRQAPGQGLEWIGVINPKYGTTRYNQKFKGRATLTVDKSTSTAYMELSSLRSEDTAVYYCTRGLNAWDYWGQGTLVTVSS
VL: DIQMTQSPSSLSASVGDRVTITCGASENIYGALNWYQQKPGKAPKLLIYGATNLEDGVPSRFSGSGSGRDYTFTISSLQPEDIATYYCQNVLTTPYTFGQGTKLEIKR
notes: Labelled with AlexaFluor-647 in the saturation assay; also called humanized 2A2 HCLG
As for B1, the EC50 in test [1] and in test [2] was 1 nM each time. The binding result in test [3] was “binds”.
